# Measurements from a protein production outcome set (Wang et al. 2014).
# Test: label from the status in PepcDB records
row,Sequence,protein production
1,KEQILSSEQLARKMMLELGDKKQEHLVAIYMDTQNRIIEQRTIFIGTVRRSVAEPREILHYACKNMATSLIIIHNHPSGSPKPSESDLSFTKKIKRSCDHLGIVCLDHIIVGKNKYYSFREEADIL,not failed
2,MHSLARRALHTCNVPRDLNPVTFCDTAGEHPDRVGLDSNAAEAVWRSVEALYRTGVHPGIQLSLRYRGEQVLHRSIGHARGNGPHDPASLPRIPMTTDTPICFFSASKAVTALLMHMLSEQGLVNLMDPVSYYCPEFARNGKRTITVHQILSHRGGIPAIPRETPIDVLWDRDEIWRLLCAAKPVEVDGAKVAYHAITGGFVLQRVLEKVTGDTIESYLDRYLRRPMGMKWFTYGIAPEHLHELASNYATGPTPRFPVSWVVNRALGGDIRTVEKVTNDPRFQEAVIPAGNLCGTAEEMGRFFQMMLNGGSWDGKRICSELTVRRAIQQFGSLQMDRTMLVPMRFSAGMMLGSNPVGLWGQQSRYAFGHVGLINKLCWADPARDISVSLLNTGFPIVGHHLPALARFVYTVCKQFPVLPENQRRLVAA,failed
3,MNKKSLLAAVLFAAVMPVSFAQNANVKGAESLSGGSKPNFPEARTLIGEAMKNPETMNDAKTWFVAGQVEERLFTSENLKQTVNQEPDRAMMNDALLRILPFYLKADQLDNMPDQKGKVKPKFTKKIMESLKGNHLYYINAGGYYMEKKDYKKALEAFDQFMQIKELPMFAAVPEISAQDSNSMMVGFFSAVCAYQANDLDRTLEICNKIKDVPYRQNDVYQLIATVYQDKKDTEGYIRMLEEGVQKFPKEAYYLLNLINKYIETGRTEEAISSLERAIADDPQNVQLYDVMAKLYENTQDYDKAEEWLKKGLALDPDNASVCYDLGRVYYNRAADLKGADQVNAETEAKAKEYLQKALPLLEKAYSINPDESWYVLRNVYYNLKMNDKYKELTERHEGK,failed
4,MRPGAPGPLWPLPWGALAWAVGFVSSMGSGNPAPGGVCWLQQGQEATCSLVLQTDVTRAECCASGNIDTAWSNLTHPGNKINLLGFLGLVHCLPCKDSCDGVECGPGKACRMLGGRPRCECAPDCSGLPARLQVCGSDGATYRDECELRAARCRGHPDLSVMYRGRCRKSCEHVVCPRPQSCVVDQTGSAHCVVCRAAPCPVPSSPGQELCGNNNVTYISSCHMRQATCFLGRSIGVRHAGSCAGTPEEPPGGESAEEEENFV,failed
5,MAGKEFKQRIRQALNNASLRGALGRFADSYVVSREEVYAGRDFESLRQRIAAIKADAAGRYEELADRFSRAVEARGGKVFRAKDAAAAREYIYQVAKEHGVTEIVKSKSFASEEIHLNEFLQERGINPYETDLAEWILQLMPGERPSHMVMPAIHLPKEEVARVFSRYLGEPVEPDIKNMVRIARRELRKKFLTAGMGISGANIAVAETGTIVLCTNEGNARLTTTVPPVHVAIVGYEKLVPSIKDIVPILEALPRSGTAQPITSYVTMITGPVPAWRGEGEGIKELHVVLLDNGRTRMAADPVFKEALQCIRCASCTNVCPVFQLVSGQVYGYIYNGGIGSVLTAFFNSLEDAVDPQSLCIGCRRCAEVCPAKINIPDLVLKLRERVVTKQGLSSGYRIALHGIVAKPKLMHTLLRAASRLQGPVTHGQPLIRHLPLFFSNLTSGRSLPAIAKEPLRDRVKRLEARTGRPRLKAAFYSGCVIDFAYPEIGEAVYKVLGREGVQVTFPQGQACCGAPAVYAGDRETAVKLAKQNITALEEARADVVVTACPTCAVALKKDFPELLAGEPAWEERARALAKKVKDFTELVHELTGGQGKKVKQAKKSGSGAVKVTYHDSCHFKRHLGLDQVARQVLKEQPGVELVEMQESDRCCGFGGSYSIKYPEISAPILERKLKNITESGAQVVAADCPGCVLQLRGGLDQKGSSIKVKHTAEVLAALENLQGGGNSK,failed
6,MKRLILPIACGICTVTSDAQTDKQPHPNVIFIYADDLGYKDLSCTGSRFYETPHIDKLAREGVCFTQSYAACPVSSPSRAALLTGKYPARINLTDYIPGDRAYGPHKNQRLASLPFNLHLSKDEITMAEAFRQNGYSTFMAGKWHLAESAEYYPEQNGFDINIGGNNTGHPSKGYFSPYGNPQLKDGPEGEYLTDRLTDEVIRYISEPKEKPFFVYLSYYTVHLPLQAKAEKIAKYRRKLSRAVPADSSFVKKGETYHKLVQDIPAYAAMVESLDENIGRLLDTLHRSGLDERTIVVFTSDNGGMATSNTTRNIPTSNLPLRAGKGYLYEGGIKVPAIIRWSGHLKGRQVSDTPIIGTDYYPTLLDLCGLPLLPGQHVDGVSMKPVLQGGRLSRPSLFWHYPHYSGGLGGRPSAAIREGDYKLIEFFEDHHVELYNVIQDESEEKDLSQIYPEIADGLRKKLYLWYKEVGARMPVDNPHYVSPVKDSDSFENKLEHHHHHH,failed
7,MVFMANKKKTKGKKTRRPTKAEIERQRAIQRMITALVLTIILFFGIIRLGIFGITVYNVIRFMVGSLAYLFIAATLIYLYFFKWLRKKDSLVAGFLIASLGLLIEWHAYLFSMPILKDKEILRSTARLIVSDLMQFKITVFAGGGMLGALIYKPIAFLFSNIGAYMIGVLFIILGLFLMSSLEVYDIVEFIRAFKNKVAEKHEQNKKERFAKREMKKAIAEQERIERQKAEEEAYLASVNVDPETGEILEDQAEDNLDDALPPEVSETSTPVFEPEILAYETSPQNDPLPVEPTIYLEDYDSPIPNMRENDEEMVYDLDDDVDDSDIENVDFTPKTTLVYKLPTIDLFAPDKPKNQSKEKDLVRKNIRVLEETFRSFGIDVKVERAEIGPSVTKYEIKPAVGVRVNRISNLSDDLALALAAKDVRIETPIPGKSLIGIEVPNSEIATVSFRELWEQSDANPENLLEVPLGKAVNGNARSFNLARMPHLLVAGSTGSGKSVAVNGIISSILMKARPDQVKFMMIDPKMVELSVYNDIPHLLIPVVTNPRKASKALQKVVDEMENRYELFSKIGVRNIAGYNTKVEEFNASSEQKQIPLPLIVVIVDELADLMMVASKEVEDAIIRLGQKARAAGIHMILATQRPSVDVISGLIKANVPSRIAFAVSSGTDSRTILDENGAEKLLGRGDMLFKPIDENHPVRLQGSFISDDDVERIVGFIKDQAEADYDDAFDPGEVSETDNGSGGGGGVPESDPLFEEAKGLVLETQKASASMIQRRLSVGFNRATRLMEELEAAGVIGPAEGTKPRKVLMTPTPSE,failed
8,HHSVEAPQVKKRMGKFPFVKASKKESEEISKQLHNALDIELPSESTVWLRDKDVWLFPDALEPMIGELRFSRMGIKIAEAHKNGYRWQHQVATALATGAESNAIELTIEEAREWYMGRDVRPQIIPEGLKTGKGEVLVKYQGAIIGLGKWVSNRIKNGLPRELVRDKNLF,not failed
9,MHQQIIKFWFEELTPQNWFENNPELDKHIASRFASVLEQAARCELFNWRDSAQGRLAEIIVLDQFSRNVYRNTPKAFAQDPLALALAQEAIRLGHDQELAPEQLSFLYMPFMHSESRLIHVEAEKLFRASGLENNYDFELKHKAIIDQFGRYPHRNAILGRESTPEELAFLQQPGSSF,not failed
10,FEELLNALHDGVYITDGQGQTLKVNQAYERLTGLNGAELLGRPMQELVKSGVISQSASLRVLQDGRPVSVMQSLSHGKKLLVSATPILAADQSIRYVVSTVRDMTELLRIKRERDELQQL,failed
11,MHSPLELTLVLLAAAVIGVVLFRMLQLPPMLAYLVVGVVIGPNATGLESDSAQTRYLAEFGVVFLMFSIGLEFSLAKLRSMRRLVLGLGASQVVLTMLLTVPASLLLSRWYPLSWQASLALGGALAMSSTAIVSKMLAERLQLETEHGRNIISVLLFQDLAVVLLLIVVPSLGKNPTDLVLTLSIAAVKIIVALVLILFLGQKLLSRWFHLVAARRSQELFMLNLLLVTLGMAALTERLGLSMALGAFLAGMLVSETPYRLQVEEDIKPFRDVLLGLFFVTVGMLLDPRVVIGHWGLVIGLVIGPVLFKFALIALLARAFGSGGGTAIRTALGLAQAGEFGFVLLNQIDGMRLIDPLLSQAILAAMLLSMLLAPFLIQYSDAIAMRLSRTDWLMQSLAMTKIAAQSLQTERHVIICGYGRSGQNLAHMLEQEDISYVALDLDPDRVRDAAAAGERVVYGDAARRESLVAAGVHRAAAVAVTYADTASALKVLHHVQALAPTLPVIVRTIDDADLDRLQQAGAAEVVPEIIEGSLMLASHALVLLGVPLRRVVRRAQEMRDARYGLLRGYFHGQDDDEDMLERDAVRLHSVPLIKGSPAIGRPLGTLGLETFKTSVTAIRRQGIRALDPEPNTLLELGDIVVLRGTPDGLQQAEERLSPR,failed
12,MQTLNDIYLAYLDSLNHQAFDELGTFVDDNVEHNGRPFGLSGYRDMLVKDFADIPDLRFEAEILVSDATRLAARLFFDCTPKSIFMDLPVNGRRVQFCEHVFYDFEQAKIRRVWSVLDKVAIERQLG,not failed
13,MVEMNKRGQFFIIGGVILSIGLILFFLLGFNSYTSDGSYLTVFKMKDVKNSIESCLINSLTSNSNLSKNLDMLKNNYKDEGIEINYKKIIFSNIRYEAKNLTFNFSLYNGNFSYNISNYGFGGAFNGSLNVSNYVFSKNLLLNISENGSVTGSFNITGSYVNVFVYDRFGNLILNETIYNNSNEKSLYYYILNVSKEGILLYLLWQRMFLTTHWQKMYPL,failed
14,MHALYITHPQVKIDPAVPVPEWGLSERGAERAREASRLPWAKALRRIVSSAETKAIETAHMLAETSGAAIEIIEAMHENDRSATGFLPPPEFEKAADWFFAHPEESFQGWERAIDAQARIVEAVKAVLDRHDARQPIAFVGHGGVGTLLKCHIEGRGISRSKDQPAGGGNLFRFSIAEFSLAAASPTCDWTAMETWQG,not failed
15,MDIEDLQTFVAVADAGGVSAAARRLGISKSIVSRRLLRVEAELGVQLLARTTRGAALTEAGITFRDHAARASAEIDTAKETILPTGELRGRLRVAMPLTFGPTHFAPVLADMARQHPQLHIHTSYSDRFVDLIAEGFDCAIRGAYLQDSNLIAKRVGPIHGKLVASPDYIKAHGSPGTLDELVTHQALMQGTEAWQFMDGDKIVTVQPQGRFKADSATALAAAAAAGLGIAWLPDCITYGYVASGALVPIMTRYPVPPGAAYVVRPPGQHPTRKVRALTEMLTEYFKRNPDVWGLDR,failed
16,MTLPQTMKAAVVHAYGAPLRIEEVKVPLPGPGQVLVKIEASGVCHTDLHAAEGDWPVKPPLPFIPGHEGVGYVAAVGSGVTRVKEGDRVGIPWLYTACGCCEHCLTGWETLCESQQNTGYSVNGGYAEYVLADPNYVGILPKNVEFAEIAPILCAGVTVYKGLKQTNARPGQWVAISGIGGLGHVAVQYARAMGLHVAAIDIDDAKLELARKLGASLTVNARQEDPVEVLQRDIGGAHGVLVTAVSNSAFGQAIGMARRGGTIALVGLPPGDFPTPIFDVVLKGLHIAGSIVGTRADLQEALDFAGEGLVKATIHPGKLDDINQILDQMRAGQIEGRIVLEM,not failed
17,MSLANWYLDNESSRLSFTSTKNADIAEVHRFLVLHGKVDPKGLAEVEVETESISTGIPLRDERLREQVFQVHKFPVAQINAQLDMRPINNLAPGAQLELRLPLTVSLRGKSHSYNAELLATRLDERRFQVVTLEPLVIHAQDFDMVSDFNALRNAAGLSAVSLSVPVGAVLIFTAREGHHHHHH,not failed
18,MKERIVGQSGELFCFGQMPVWKVENLPEVLLSGYSSEEGEWVCLNVLQGDVEVRAPDGSAEVWSADGGDCVFAPQQVFSVKPKTDDAEIRLSLYCAAADYFHKKYGMSATHSAVAAARDTVPAGRALDMGCGQGRNALFLGLKGFEVTAVDHNPAALANVAELAEAEGLNVRTLEYDLNAAALQGEFDYIVATVVLMFLMPQRVPDVIADMQAHTAAGGYNLIVSAMDTADFPCPMPFPFKFKEGELKDYYRDWELVEYKEELGSMHAKDENGNPIRFKFVTMLAKKPELEHHHHHH,failed
19,MPQIYFSAAERRPKFVMKTGLSATEKNEVIKAAYRQIFERDITRAYSLSISDLESKVKNGDISMKEFVRRLAKSPLYQKQFYQPFINSRVIELAFRHILGRGPSSREEVQKYFSIISNGGLPALVDALVDSAEYSDYFGEETVPYLRGLEHHHHHH,failed
